Assay results reported in patent publication US20200079833A1 (AstraZeneca / MedImmune, published 2020).
Starred links: 1 amine or outer side, 2 acyl side, 3 side chain; linkers in the order of their positions; H or OH if unused. Non-standard residues stand in square brackets, D forms with d. Groups on a side chain read outwards from the residue. Primed or numbered codes have the meaning given here. No end group written: not given here. *: point of attachment. γGlu = O=C(O)[C@H](CCC(=O)[*:2])N[*:1]; Stearoyl = CCCCCCCCCCCCCCCCCC(=O)*; αMeF = C[C@](N)(Cc1ccccc1)C(=O)O; αMeK = C[C@](N)(CCCCN)C(=O)O; Lauroyl = CCCCCCCCCCCC(=O)*; αMeS = C[C@](N)(CO)C(=O)O; PEG2′ = not defined here; Aib = CC(C)(N)C(=O)O; Ahx = NCCCCCC(=O)O

T1: glucose-dependent insulinotropic peptide (gastric inhibitory polypeptide) receptor (GIPR) (human, UniProt P48546 22-466)
T1 sequence (looked up): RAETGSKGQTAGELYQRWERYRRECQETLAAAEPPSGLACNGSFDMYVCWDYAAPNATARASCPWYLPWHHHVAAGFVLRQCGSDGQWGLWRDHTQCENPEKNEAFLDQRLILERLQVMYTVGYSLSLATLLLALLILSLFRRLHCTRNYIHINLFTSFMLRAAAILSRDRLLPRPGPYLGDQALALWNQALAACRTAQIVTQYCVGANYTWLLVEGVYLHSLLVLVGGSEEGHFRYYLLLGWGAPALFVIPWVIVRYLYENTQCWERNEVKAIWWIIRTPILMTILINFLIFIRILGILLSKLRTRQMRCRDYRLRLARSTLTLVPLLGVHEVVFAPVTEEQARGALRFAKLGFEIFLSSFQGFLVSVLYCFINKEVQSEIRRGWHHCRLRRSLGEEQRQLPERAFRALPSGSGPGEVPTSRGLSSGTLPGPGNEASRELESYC

T2: glucose-dependent insulinotropic peptide (gastric inhibitory polypeptide) receptor (GIPR), primary cAMP assay … (human, UniProt P48546 22-466)
T2 sequence (looked up): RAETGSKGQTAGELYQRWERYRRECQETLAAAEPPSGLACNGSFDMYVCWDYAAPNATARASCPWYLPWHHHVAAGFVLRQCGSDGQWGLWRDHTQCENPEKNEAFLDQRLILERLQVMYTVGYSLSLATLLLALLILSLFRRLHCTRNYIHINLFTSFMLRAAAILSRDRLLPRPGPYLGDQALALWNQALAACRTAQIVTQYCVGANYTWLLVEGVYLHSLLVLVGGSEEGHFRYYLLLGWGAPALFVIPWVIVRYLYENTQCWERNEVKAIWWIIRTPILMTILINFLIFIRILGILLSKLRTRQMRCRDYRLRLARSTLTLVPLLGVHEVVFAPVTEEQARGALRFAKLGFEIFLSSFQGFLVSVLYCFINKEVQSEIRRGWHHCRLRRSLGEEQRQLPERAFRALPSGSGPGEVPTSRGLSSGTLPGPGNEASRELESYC


What was measured:
Experiment in all cases: cell-based or functional assay
GLP-1 receptor (GLP-1R) = GLP-1 receptor (GLP-1R) (human, UniProt P43220 24-463)
glucagon receptor (GCGR) = glucagon receptor (GCGR) (human, UniProt P47871 26-477)
[1] = molecular target: T1, glucose-dependent insulinotropic …
[2] = molecular target: GLP-1 receptor (GLP-1R), primary cAMP assay cell line (human, UniProt P43220 24-463)
[3] = molecular target: glucagon receptor (GCGR), primary cAMP assay cell line (human, UniProt P47871 26-477)
[4] = molecular target: T2, glucose-dependent insulinotropic …

glucagon receptor (GCGR), primary cAMP assay cell line, sequence (P47871 26-477): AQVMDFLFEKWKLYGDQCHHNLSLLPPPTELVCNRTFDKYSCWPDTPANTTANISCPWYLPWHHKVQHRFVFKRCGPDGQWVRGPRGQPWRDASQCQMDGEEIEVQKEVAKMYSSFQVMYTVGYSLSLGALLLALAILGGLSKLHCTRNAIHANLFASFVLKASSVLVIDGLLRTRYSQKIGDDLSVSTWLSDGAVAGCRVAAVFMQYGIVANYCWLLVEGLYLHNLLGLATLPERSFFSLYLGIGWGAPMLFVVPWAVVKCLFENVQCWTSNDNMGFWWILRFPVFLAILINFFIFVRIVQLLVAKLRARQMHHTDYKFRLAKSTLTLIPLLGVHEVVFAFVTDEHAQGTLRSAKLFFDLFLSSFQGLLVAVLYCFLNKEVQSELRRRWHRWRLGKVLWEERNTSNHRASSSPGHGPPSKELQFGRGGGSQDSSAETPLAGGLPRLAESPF
glucagon receptor (GCGR), sequence (P47871 26-477): as above

Row | Primary assay EC50 (cAMP), GLP-1R n1 (GLP-1 receptor (GLP-1R)) [nM] | Primary assay EC50 (cAMP), GLP-1R n2 (GLP-1 receptor (GLP-1R)) [nM] | Primary assay EC50 (cAMP), Mean pM GLP-1R (GLP-1 receptor (GLP-1R)) [pM] | Primary assay EC50 (cAMP), Gluc-R, first run (glucagon receptor (GCGR)) [nM] | Primary assay EC50 (cAMP), Gluc-R, second run (glucagon receptor (GCGR)) [nM] | Primary assay EC50 (cAMP), GIP-R, first run [1] [nM] | Primary assay EC50 (cAMP), GIP-R, second run [1] [nM] | cAMP Primary assay EC50, Mean pM GLP-1R [2] [pM] | cAMP Primary assay EC50, n1 [2] [nM] | cAMP Primary assay EC50, n2 [2] [nM] | cAMP Primary assay EC50, n1 [3] [nM] | cAMP Primary assay EC50, n2 [3] [nM] | cAMP Primary assay EC50, n1 [4] [nM] | cAMP Primary assay EC50, n2 [4] [nM] | Binder
1 | 0.29 | 0.19 | 238 | 28 | 28 | 28 | 28 | – | – | – | – | – | – | – | H[Aib]EGS[αMeF]TSDV[αMeS]S[αMeF]LEGEAAK([γGlu-Stearoyl])E[αMeF]IA[αMeF]VV[αMeK]GG-NH2 (N-terminus assumed; SMILES CCCCCCCCCCCCCCCCCC(=O)N[C@@H](CCC(=O)NCCCC[C@H](NC(=O)[C@H](C)NC(=O)[C@H](C)NC(=O)[C@H](CCC(=O)O)NC(=O)CNC(=O)[C@H](CCC(=O)O)NC(=O)[C@H](CC(C)C)NC(=O)[C@](C)(Cc1ccccc1)NC(=O)[C@H](CO)NC(=O)[C@](C)(CO)NC(=O)[C@@H](NC(=O)[C@H](CC(=O)O)NC(=O)[C@H](CO)NC(=O)[C@@H](NC(=O)[C@](C)(Cc1ccccc1)NC(=O)[C@H](CO)NC(=O)CNC(=O)[C@H](CCC(=O)O)NC(=O)C(C)(C)NC(=O)[C@@H](N)Cc1c[nH]cn1)[C@@H](C)O)C(C)C)C(=O)N[C@@H](CCC(=O)O)C(=O)N[C@@](C)(Cc1ccccc1)C(=O)N[C@H](C(=O)N[C@@H](C)C(=O)N[C@@](C)(Cc1ccccc1)C(=O)N[C@H](C(=O)N[C@H](C(=O)N[C@@](C)(CCCCN)C(=O)NCC(=O)NCC(N)=O)C(C)C)C(C)C)[C@@H](C)CC)C(=O)O) [SEQ ID NO 155]
2 | 0.0028 | 0.0023 | 2.5 | 26 | 26 | 26 | 26 | – | – | – | – | – | – | – | H[Aib]EGS[αMeF]TSDV[αMeS]S[αMeF]LEGEAAK([PEG2′-PEG2′-PEG2′-Stearoyl])E[αMeF]IA[αMeF]VV[αMeK]GG-NH2 [SEQ ID NO 154]
3 | – | – | – | – | – | – | – | 196 | 0.167 | 0.224 | 19.6 | 19.6 | 19.6 | 19.6 | H[Aib]EGS[αMeF]TSDV[αMeS]SYK([PEG2′-PEG2′-γGlu-Lauroyl])EGEK([PEG2′-PEG2′-γGlu-Lauroyl])A[αMeK]EFIAFK([PEG2′-PEG2′-γGlu-Lauroyl])VEGG-NH2 [SEQ ID NO: 485]
4 | 0.0079 | 0.005 | 6.4 | 27 | 27 | 27 | 27 | – | – | – | – | – | – | – | H[Aib]EGS[αMeF]TSDV[αMeS]S[αMeF]LEGEAAK([PEG2′-PEG2′-Stearoyl])E[αMeF]IA[αMeF]VV[αMeK]GG-NH2 [SEQ ID NO 153]
5 | – | – | – | – | – | – | – | 166 | 0.163 | 0.168 | 19.9 | 19.9 | 19.9 | 19.9 | H[Aib]EGS[αMeF]TSDV[αMeS]SYK([PEG2′-PEG2′-γGlu-Lauroyl])EGK([PEG2′-PEG2′-γGlu-Lauroyl])AA[αMeK]EFIAFK([PEG2′-PEG2′-γGlu-Lauroyl])VEGG-NH2 [SEQ ID NO: 484]
6 | 0.11 | 0.1 | 105 | 27 | 27 | 27 | 27 | – | – | – | – | – | – | – | H[Aib]EGS[αMeF]TSDV[αMeS]S[αMeF]LEGEAAK([γGlu-γGlu-Stearoyl])E[αMeF]IA[αMeF]VV[αMeK]GG-NH2 (N-terminus assumed; SMILES CCCCCCCCCCCCCCCCCC(=O)N[C@@H](CCC(=O)N[C@@H](CCC(=O)NCCCC[C@H](NC(=O)[C@H](C)NC(=O)[C@H](C)NC(=O)[C@H](CCC(=O)O)NC(=O)CNC(=O)[C@H](CCC(=O)O)NC(=O)[C@H](CC(C)C)NC(=O)[C@](C)(Cc1ccccc1)NC(=O)[C@H](CO)NC(=O)[C@](C)(CO)NC(=O)[C@@H](NC(=O)[C@H](CC(=O)O)NC(=O)[C@H](CO)NC(=O)[C@@H](NC(=O)[C@](C)(Cc1ccccc1)NC(=O)[C@H](CO)NC(=O)CNC(=O)[C@H](CCC(=O)O)NC(=O)C(C)(C)NC(=O)[C@@H](N)Cc1c[nH]cn1)[C@@H](C)O)C(C)C)C(=O)N[C@@H](CCC(=O)O)C(=O)N[C@@](C)(Cc1ccccc1)C(=O)N[C@H](C(=O)N[C@@H](C)C(=O)N[C@@](C)(Cc1ccccc1)C(=O)N[C@H](C(=O)N[C@H](C(=O)N[C@@](C)(CCCCN)C(=O)NCC(=O)NCC(N)=O)C(C)C)C(C)C)[C@@H](C)CC)C(=O)O)C(=O)O) [SEQ ID NO 156]
7 | 0.14 | 0.16 | 148 | 28 | 28 | 28 | 28 | – | – | – | – | – | – | – | H[Aib]EGS[αMeF]TSDV[αMeS]S[αMeF]LEGEAAK([Ahx-Stearoyl])E[αMeF]IA[αMeF]VV[αMeK]GG-NH2 (N-terminus assumed; SMILES CCCCCCCCCCCCCCCCCC(=O)NCCCCCC(=O)NCCCC[C@H](NC(=O)[C@H](C)NC(=O)[C@H](C)NC(=O)[C@H](CCC(=O)O)NC(=O)CNC(=O)[C@H](CCC(=O)O)NC(=O)[C@H](CC(C)C)NC(=O)[C@](C)(Cc1ccccc1)NC(=O)[C@H](CO)NC(=O)[C@](C)(CO)NC(=O)[C@@H](NC(=O)[C@H](CC(=O)O)NC(=O)[C@H](CO)NC(=O)[C@@H](NC(=O)[C@](C)(Cc1ccccc1)NC(=O)[C@H](CO)NC(=O)CNC(=O)[C@H](CCC(=O)O)NC(=O)C(C)(C)NC(=O)[C@@H](N)Cc1c[nH]cn1)[C@@H](C)O)C(C)C)C(=O)N[C@@H](CCC(=O)O)C(=O)N[C@@](C)(Cc1ccccc1)C(=O)N[C@H](C(=O)N[C@@H](C)C(=O)N[C@@](C)(Cc1ccccc1)C(=O)N[C@H](C(=O)N[C@H](C(=O)N[C@@](C)(CCCCN)C(=O)NCC(=O)NCC(N)=O)C(C)C)C(C)C)[C@@H](C)CC) [SEQ ID NO 158]
8 | – | – | – | – | – | – | – | 212 | 0.165 | 0.259 | 19.9 | 19.9 | 19.9 | 19.9 | H[Aib]EGS[αMeF]TSDV[αMeS]SYK([PEG2′-PEG2′-γGlu-Lauroyl])EGEAA[αMeK]K([PEG2′-PEG2′-γGlu-Lauroyl])FIAFK([PEG2′-PEG2′-γGlu-Lauroyl])VEGG-NH2 [SEQ ID NO: 486]
9 | 0.24 | 0.22 | 227 | 26 | 26 | 26 | 26 | – | – | – | – | – | – | – | H[Aib]EGS[αMeF]TSDV[αMeS]S[αMeF]LEGEAAK([γGlu-γGlu-γGlu-Stearoyl])E[αMeF]IA[αMeF]VV[αMeK]GG-NH2 (N-terminus assumed; SMILES CCCCCCCCCCCCCCCCCC(=O)N[C@@H](CCC(=O)N[C@@H](CCC(=O)N[C@@H](CCC(=O)NCCCC[C@H](NC(=O)[C@H](C)NC(=O)[C@H](C)NC(=O)[C@H](CCC(=O)O)NC(=O)CNC(=O)[C@H](CCC(=O)O)NC(=O)[C@H](CC(C)C)NC(=O)[C@](C)(Cc1ccccc1)NC(=O)[C@H](CO)NC(=O)[C@](C)(CO)NC(=O)[C@@H](NC(=O)[C@H](CC(=O)O)NC(=O)[C@H](CO)NC(=O)[C@@H](NC(=O)[C@](C)(Cc1ccccc1)NC(=O)[C@H](CO)NC(=O)CNC(=O)[C@H](CCC(=O)O)NC(=O)C(C)(C)NC(=O)[C@@H](N)Cc1c[nH]cn1)[C@@H](C)O)C(C)C)C(=O)N[C@@H](CCC(=O)O)C(=O)N[C@@](C)(Cc1ccccc1)C(=O)N[C@H](C(=O)N[C@@H](C)C(=O)N[C@@](C)(Cc1ccccc1)C(=O)N[C@H](C(=O)N[C@H](C(=O)N[C@@](C)(CCCCN)C(=O)NCC(=O)NCC(N)=O)C(C)C)C(C)C)[C@@H](C)CC)C(=O)O)C(=O)O)C(=O)O) [SEQ ID NO 157]
